Experiments:
[1] = biological target: HLA-A*31:01; assay: IEDB peptide-MHC binding, purified MHC/direct/fluorescence; filed as Kd, often an IC50 or EC50 that approximates it; ≥ and ≤ were set here for values at or beyond the usual limits of such assays
[2] = biological target: HLA-B*57:01; assay: as above
[3] = biological target: HLA-B*18:01; assay: as above
[4] = biological target: HLA-A*11:01; assay: as above
[5] = biological target: HLA-A*26:01; assay: as above
[6] = biological target: HLA-A*01:01; assay: as above
[7] = biological target: HLA-B*58:01; assay: as above
[8] = biological target: HLA-B*07:02; assay: as above
[9] = biological target: HLA-B*15:17; assay: as above
[10] = biological target: HLA-A*02:03; assay: IEDB peptide-MHC binding, purified MHC/competitive/fluorescence; filed as Kd, often an IC50 or EC50 that approximates it; ≥ and ≤ were set here for values at or beyond the usual limits of such assays; settings: source organism: Giardia lamblia ATCC 50803
[11] = biological target: HLA-A*26:03; assay: as above
[12] = biological target: HLA-A*02:01; assay: as above; settings: source organism: Giardia lamblia ATCC 50803
[13] = biological target: HLA-B*39:01; assay: as above
[14] = biological target: HLA-A*68:02; assay: as above
[15] = biological target: HLA-B*15:01; assay: as above
[16] = biological target: HLA-A*30:01; assay: as above
[17] = biological target: HLA-A*26:02; assay: as above
[18] = biological target: HLA-A*26:02; assay: IEDB peptide-MHC binding, purified MHC/direct/fluorescence; filed as Kd, often an IC50 or EC50 that approximates it; ≥ and ≤ were set here for values at or beyond the usual limits of such assays
[19] = biological target: HLA-B*15:09; assay: as above; settings: source organism: Variola virus
[20] = biological target: HLA-A*02:01; assay: as above
[21] = biological target: HLA-B*08:03; assay: as above; settings: source organism: Variola virus
[22] = biological target: HLA-B*48:01; assay: as above
[23] = biological target: HLA-B*08:01; assay: as above
[24] = biological target: HLA-A*68:02; assay: as above; settings: source organism: Camelpox virus M-96
[25] = biological target: HLA-B*15:01; assay: as above; settings: source organism: Camelpox virus M-96
[26] = biological target: HLA-B*46:01; assay: as above; settings: source organism: Camelpox virus M-96
[27] = biological target: HLA-B*27:05; assay: as above
[28] = biological target: HLA-A*69:01; assay: as above
[29] = biological target: HLA-B*15:03; assay: IEDB peptide-MHC binding, purified MHC/competitive/radioactivity; filed as Kd, often an IC50 or EC50 that approximates it; ≥ and ≤ were set here for values at or beyond the usual limits of such assays; settings: source organism: Vaccinia virus WR
[30] = biological target: HLA-A*31:01; assay: IEDB peptide-MHC binding, purified MHC/competitive/fluorescence; filed as Kd, often an IC50 or EC50 that approximates it; ≥ and ≤ were set here for values at or beyond the usual limits of such assays; settings: source organism: Vaccinia virus WR
[31] = biological target: HLA-A*11:01; assay: as above
[32] = biological target: HLA-B*35:01; assay: as above; settings: source organism: Vaccinia virus WR
[33] = biological target: HLA-A*26:01; assay: as above; settings: source organism: Vaccinia virus WR
[34] = biological target: HLA-A*11:01; assay: IEDB peptide-MHC binding, purified MHC/competitive/fluorescence; ≥ and ≤ were set here for values at or beyond the usual limits of such assays; settings: source organism: Vaccinia virus WR
[35] = biological target: HLA-B*15:01; assay: as above; settings: source organism: Vaccinia virus WR
[36] = biological target: HLA-B*40:01; assay: IEDB peptide-MHC binding, purified MHC/direct/fluorescence; filed as Kd, often an IC50 or EC50 that approximates it; ≥ and ≤ were set here for values at or beyond the usual limits of such assays
[37] = biological target: HLA-B*15:09; assay: IEDB peptide-MHC binding, purified MHC/competitive/fluorescence; filed as Kd, often an IC50 or EC50 that approximates it; ≥ and ≤ were set here for values at or beyond the usual limits of such assays
[38] = biological target: HLA-B*51:01; assay: IEDB peptide-MHC binding, purified MHC/direct/fluorescence; filed as Kd, often an IC50 or EC50 that approximates it; ≥ and ≤ were set here for values at or beyond the usual limits of such assays; settings: source organism: Camelpox virus M-96
[39] = biological target: HLA-A*03:01; assay: as above; settings: source organism: Variola virus
[40] = biological target: HLA-B*15:17; assay: IEDB peptide-MHC binding, purified MHC/competitive/fluorescence; filed as Kd, often an IC50 or EC50 that approximates it; ≥ and ≤ were set here for values at or beyond the usual limits of such assays; settings: source organism: Vaccinia virus
[41] = source organism: Giardia lamblia ATCC 50803
[42] = source organism: Escherichia coli O157:H7 str. EDL933
[43] = source organism: Camelpox virus M-96
[44] = source organism: Vaccinia virus WR
[45] = source organism: Francisella tularensis subsp. holarctica LVS
[46] = source organism: Francisella tularensis subsp. tularensis FSC033
[47] = source organism: Francisella tularensis subsp. tularensis FSC198
[48] = source organism: Vaccinia virus

Q: With FMKVKFEAL as the sequence, how does the Kd [1, 41] read?
A: ≥ 20 µM

Q: What about the Kd [2, 41] of the same sequence?
A: ≥ 20 µM

Q: What about the Kd [3, 41] of the same sequence?
A: ≥ 20 µM

Q: What about the Kd [4, 41] of the same sequence?
A: ≥ 20 µM

Q: What about the Kd [5, 41] of the same sequence?
A: ≥ 20 µM

Q: And the Kd [6, 41]?
A: ≥ 20 µM

Q: What about the Kd [7, 41] of the same sequence?
A: ≥ 20 µM

Q: And the Kd [8, 41]?
A: ≥ 20 µM

Q: What about the Kd [9, 41] of the same sequence?
A: ≥ 20 µM

Q: What about the Kd [10] of the same sequence?
A: 0.0298 µM

Q: What about the Kd [11, 41] of the same sequence?
A: ≥ 20 µM

Q: What about the Kd [12] of the same sequence?
A: 0.217 µM

Q: And the Kd [13, 41]?
A: ≥ 20 µM

Q: What about the Kd [14, 41] of the same sequence?
A: 4.62 µM

Q: And the Kd [15, 41]?
A: 0.168 µM

Q: What about the Kd [16, 41] of the same sequence?
A: 4.26 µM

Q: And the Kd [17, 41]?
A: ≥ 20 µM

Q: With FTHREQLFM as the sequence, how does the Kd [5, 42] read?
A: 0.059 µM

Q: And the Kd [18, 42]?
A: 0.028 µM

Q: What does the source list for IQFMHEQGY?
A: Kd [19]: ≥ 20 µM; Kd [20, 43]: ≥ 20 µM; Kd [2, 43]: 1.96 µM; Kd [21]: ≥ 20 µM; Kd [22, 43]: ≥ 20 µM; Kd [6, 43]: ≥ 20 µM; Kd ([23]; source organism: Variola virus): ≥ 20 µM; Kd [24]: ≥ 20 µM; Kd [25]: 0.052 µM; Kd [26]: ≥ 20 µM; Kd [7, 43]: ≥ 20 µM; Kd [27, 43]: 0.929 µM; Kd [8, 43]: ≥ 20 µM; Kd [28, 43]: ≥ 20 µM; Kd [9, 43]: 0.29 µM; Kd [29]: 0.00366 µM; Kd [30]: ≥ 20 µM; Kd [31, 44]: ≥ 20 µM; Kd [32]: 0.104 µM; Kd [33]: ≥ 20 µM; Kd [16, 44]: 0.0024 µM; Kd [17, 44]: ≥ 20 µM; IC50 [34]: ≥ 108 µM; IC50 [35]: 6.83 µM

Q: For PTIPEQKCM, which Kd ([11]; source organism: Entamoeba histolytica HM-1:IMSS) is on record?
A: ≥ 20 µM

Q: Which Kd [36, 45] does the source give for REMGIVDLL here?
A: 0.0014 µM

Q: And the Kd [1, 45]?
A: ≥ 20 µM

Q: What about the Kd [20, 45] of the same sequence?
A: ≥ 20 µM

Q: What about the Kd [2, 45] of the same sequence?
A: ≥ 20 µM

Q: And the Kd [3, 45]?
A: 0.514 µM

Q: What about the Kd [4, 45] of the same sequence?
A: ≥ 20 µM

Q: And the Kd [22, 45]?
A: 0.0932 µM

Q: And the Kd [6, 45]?
A: ≥ 20 µM

Q: What about the Kd [23, 46] of the same sequence?
A: ≥ 20 µM

Q: And the Kd [7, 45]?
A: ≥ 20 µM

Q: And the Kd [27, 45]?
A: ≥ 20 µM

Q: And the Kd [8, 45]?
A: ≥ 20 µM

Q: What about the Kd [28, 45] of the same sequence?
A: ≥ 20 µM

Q: And the Kd [18, 46]?
A: ≥ 20 µM

Q: And the Kd [9, 45]?
A: ≥ 20 µM

Q: And the Kd [37, 47]?
A: ≥ 20 µM

Q: What about the Kd [13, 47] of the same sequence?
A: 4 µM

Q: And the Kd [14, 47]?
A: ≥ 20 µM

Q: With RVATENIAV as the sequence, how does the Kd [38] read?
A: ≥ 20 µM

Q: And the Kd [36, 43]?
A: ≥ 20 µM

Q: And the Kd [1, 43]?
A: ≥ 20 µM

Q: What about the Kd [39] of the same sequence?
A: ≥ 20 µM

Q: And the Kd [20, 43]?
A: 0.0227 µM

Q: And the Kd [2, 43]?
A: ≥ 20 µM

Q: What about the Kd [3, 43] of the same sequence?
A: ≥ 20 µM

Q: What about the Kd [22, 43] of the same sequence?
A: ≥ 20 µM

Q: What about the Kd [6, 43] of the same sequence?
A: ≥ 20 µM

Q: What about the Kd ([23]; source organism: Variola virus) of the same sequence?
A: ≥ 20 µM

Q: And the Kd [26]?
A: ≥ 20 µM

Q: What about the Kd [7, 43] of the same sequence?
A: ≥ 20 µM

Q: What about the Kd [27, 43] of the same sequence?
A: ≥ 20 µM

Q: What about the Kd [8, 43] of the same sequence?
A: 0.226 µM

Q: And the Kd [28, 43]?
A: 0.156 µM

Q: What about the Kd [37, 48] of the same sequence?
A: ≥ 20 µM

Q: And the Kd [31, 48]?
A: ≥ 20 µM

Q: What about the Kd [13, 48] of the same sequence?
A: 2.81 µM

Q: And the Kd [15, 48]?
A: 0.445 µM

Q: And the Kd [40]?
A: ≥ 20 µM

Q: STPAILHIM was tested. Which Kd ([18]; source organism: Listeria monocytogenes serotype 4b str. H7858) did it give?
A: 0.003 µM

From the Immune Epitope Database (IEDB)
